Article PMC6118392, “VapC proteins from Mycobacterium tuberculosis share ribonuclease sequence specificity but differ in regulation and toxicity” (PLoS ONE, 2018)

T1: VapB1;VapC1 (UniProt P0CW29+P9WFC1)
T1 sequence 1: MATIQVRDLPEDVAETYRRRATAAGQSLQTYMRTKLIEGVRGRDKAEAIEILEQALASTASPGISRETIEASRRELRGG
T1 sequence 2: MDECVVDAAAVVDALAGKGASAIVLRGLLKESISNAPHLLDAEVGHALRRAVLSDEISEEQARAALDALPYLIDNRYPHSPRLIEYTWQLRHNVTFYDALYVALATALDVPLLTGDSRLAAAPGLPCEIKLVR

T2: VapB29;VapC29 (UniProt P9WJ37+P9WF79)
T2 sequence 1: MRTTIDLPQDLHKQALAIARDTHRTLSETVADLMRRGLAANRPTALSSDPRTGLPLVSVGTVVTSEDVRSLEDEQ
T2 sequence 2: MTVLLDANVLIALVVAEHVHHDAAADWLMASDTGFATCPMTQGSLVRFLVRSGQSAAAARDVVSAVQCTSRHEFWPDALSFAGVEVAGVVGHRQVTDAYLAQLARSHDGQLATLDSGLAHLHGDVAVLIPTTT

T3: VapB29;VapC29 (Mycobacterium tuberculosis …, UniProt P9WJ37;P9WF79 1-75;1-133, |)
T3 sequence 1: T2 sequence 1
T3 sequence 2: T2 sequence 2

B1: Oligo 5 (50 bp vapBC29 promoter, control) (dsDNA)
DNA 1: GGTGAGCGTCGGCGCGCGCATCACGATGCAGCGATGTTAGGATGAGGCGG
DNA 2: CCGCCTCATCCTAACATCGCTGCATCGTGATGCGCGCGCCGACGCTCACC

Tests used:
Assay in all cases: EMSA
VapB1;VapC1 = biological target: T1, VapB1;VapC1
VapB29;VapC29 [1] = biological target: T2, VapB29;VapC29
VapB29;VapC29 [2] = biological target: T3, VapB29;VapC29; details: protein: recombinant;recombinant; tags: ;C-terminal His; label: 3' DIG-ddUTP; blunt

Molecule	binding (VapB1;VapC1)	binding (VapB29;VapC29 [1])	binding result (VapB29;VapC29 [2])
AGCGGAGTTCACCGGCTAAGAATGCCGGCTTATCCACCGGGCGTTTCGGCGGCATCGATGGCCTTCTCTAACCGGTCGAGCACCGCGCGCAGATCGGCCAG (double strand) [vapBC1 promoter 101 bp]	no binding		
CATGGGAATACGATACCAATGGCTTCCCACTCAGGTGCGGAAGTCGACTCACCGCCGTTACCACGACCCCGACGACCACACCGTCAGCTGCGGCGCGGCGTGGCGACTATTGGTCGCTAGTGTCGTGCTCCCGATTCGGGTCCTTTGTATCTGATGACGT (double strand) [vapBC27 promoter 160 bp]		no binding	
GTGGATAAGCCGGCATTCTTAGCCGGTGAACTCCGCTATGGCTACCATTCAAGTTCGGGATTTGCCCGAAGATGTCGCCGAAACCTATCGACGGCGCGCCACCGCAGCGGGGCAGTCGCTGCAGACGTATATGCGCACCAAGCTCATCGA (double strand) [vapBC1 promoter 150 bp]	no binding	no binding	
B1			binds
